According to US10100129B2, “Antibodies against CD73 and uses thereof” (BRISTOL-MYERS SQUIBB COMPANY, priority 2014, dated 2018):
Changes are numbered by the printed parent chain. Numbers in names are those of the source. One block for each molecule: values may come before it.

How the values were obtained:
[1] = tested on: human FcγRs; experiment: SPR binding profile to human FcγRs (panel)
Description: Binding of the constructs to human FcγRs was measured via SPR. hCD64 and hCD32a-H131 binding data for IgG1.1 and IgG2 molecules were consistent with expected values for the different Fcs. IgG1.1f is the most inert Fc.
(§1) The binding of antibodies to Fc gamma receptors (FcγRs or FcgRs) was studied using biosensor technologies including Biacore surface plasmon resonance (SPR) and Fortebio Biolayer Interferometry (BLI). SPR studies were performed on a Biacore T100 instrument (GE Healthcare) at 25° C. The Fab fragment from a murine anti-6×His antibody was immobilized on a CM5 sensor chip using EDC/NHS to a density of ˜3000 RU. Various his-tagged FcgRs (7 ug/ml) were captured via the C-terminal his-tag using a contact time of 30 s at 10 ul/min, and the binding of 1.0 μM antibody was evaluated in a running buffer of 10 mM NaPO4, 130 mM NaCl, 0.05% p20 (PBS-T) pH 7.1. FcgRs used for these experiments included CD64 (FcgRI), CD32a-H131 (FcgRIIa-H131), CD32a-R131 (FcgRIIa-R131), CD32b (FcgRIIb), CD16a-V158 (FcgRIIIa-V158), CD16b-NA1 (FcgRIIIb-NA1), and CD16B-NA2 (FcgRIIIb-NA2). BLI experiments were performed on a Fortebio Octet RED instrument (Pall, Fortebio) at 25° C. in 10 mM NaPO4, 130 mM NaCl, 0.05% p20 (PBS-T) pH 7.1. Antibodies were captured out of undiluted expression supernatants on protein A coated sensors, followed by the binding of 1 μM hCD32a-H131, hCD32a-R131, hCD32b, hCD16a-V158, or 0.1 μM hCD64 analytes.
This engineering strategy was further explored by producing other antibodies formatted with IgG2.3G1-AY, IgG2.3G1-AY-S267E (IgG2.3G1-AY-V27), as well as IgG2-B-form variants (IgG2.5G1-AY and IgG2.5G1-AY-V27), and other hybrid antibodies containing different combinations of IgG1 and IgG2 constant domains, and testing the binding of these antibodies to anti-his Fab captured his-tagged FcgRs using Biacore SPR technology.

[2] = biological target: T1, CD32a-R131 (FcgRIIa-R131) (Homo sapiens, UniProt P12318, H167R); experiment: SPR binding to FcgR-his: CD32a-R131; conditions: 1 μM antibody, anti-his Fab captured FcgR-his
T1 sequence (P12318 34-217 H167R limits assumed): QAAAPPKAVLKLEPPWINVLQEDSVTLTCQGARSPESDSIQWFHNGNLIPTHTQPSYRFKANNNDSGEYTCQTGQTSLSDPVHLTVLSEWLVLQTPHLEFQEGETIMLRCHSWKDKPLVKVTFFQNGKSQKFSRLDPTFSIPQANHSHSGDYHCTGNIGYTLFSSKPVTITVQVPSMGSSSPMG
Description: as §1

[3] = biological target: CD16a-V158 (FcgRIIIa-V158) (Homo sapiens, UniProt P08637, F176V); experiment: SPR binding to FcgR-his: CD16a-V158; conditions: 1 μM antibody, anti-his Fab captured FcgR-his
CD16a-V158 (FcgRIIIa-V158), sequence (P08637 17-208 F176V limits assumed): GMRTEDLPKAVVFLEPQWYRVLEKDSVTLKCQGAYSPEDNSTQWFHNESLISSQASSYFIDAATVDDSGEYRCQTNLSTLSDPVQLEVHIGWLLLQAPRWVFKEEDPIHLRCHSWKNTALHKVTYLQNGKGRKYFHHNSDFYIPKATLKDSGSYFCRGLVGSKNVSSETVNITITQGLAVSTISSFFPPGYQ
Description: as §1

[4] = biological target: CD64 (FcgRI) (Homo sapiens, UniProt P12314); experiment: SPR binding of 1.0 μM antibody to anti-his Fab captured FcgR-his: CD64
CD64 (FcgRI), sequence (P12314 16-374): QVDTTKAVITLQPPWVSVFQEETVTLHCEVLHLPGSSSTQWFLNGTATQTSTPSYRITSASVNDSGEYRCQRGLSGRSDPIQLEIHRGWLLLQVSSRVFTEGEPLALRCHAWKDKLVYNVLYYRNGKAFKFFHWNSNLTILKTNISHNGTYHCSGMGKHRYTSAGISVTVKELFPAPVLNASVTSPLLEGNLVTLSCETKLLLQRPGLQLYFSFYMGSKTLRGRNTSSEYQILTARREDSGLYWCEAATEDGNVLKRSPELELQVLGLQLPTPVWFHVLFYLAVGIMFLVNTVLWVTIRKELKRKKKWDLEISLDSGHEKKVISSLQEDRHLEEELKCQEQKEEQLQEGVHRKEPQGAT
Description: as §1

[5] = biological target: CD16B-NA2 (FcgRIIIb-NA2) (Homo sapiens, UniProt O75015); experiment: SPR binding to FcgR-his: CD16B-NA2; conditions: 1 μM antibody, anti-his Fab captured FcgR-his
CD16B-NA2 (FcgRIIIb-NA2), sequence (O75015 17-200 limits assumed): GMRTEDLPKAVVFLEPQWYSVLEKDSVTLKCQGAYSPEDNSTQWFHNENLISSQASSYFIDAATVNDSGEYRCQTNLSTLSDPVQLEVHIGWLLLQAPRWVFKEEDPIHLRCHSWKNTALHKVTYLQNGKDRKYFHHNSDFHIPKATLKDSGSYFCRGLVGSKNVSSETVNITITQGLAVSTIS
Description: as §1

[6] = biological target: T2, CD32b (FcgRIIb) (Homo sapiens, UniProt P31994); experiment: SPR binding to FcgR-his: CD32b; conditions: 1 μM antibody, anti-his Fab captured FcgR-his
T2 sequence (P31994 43-310): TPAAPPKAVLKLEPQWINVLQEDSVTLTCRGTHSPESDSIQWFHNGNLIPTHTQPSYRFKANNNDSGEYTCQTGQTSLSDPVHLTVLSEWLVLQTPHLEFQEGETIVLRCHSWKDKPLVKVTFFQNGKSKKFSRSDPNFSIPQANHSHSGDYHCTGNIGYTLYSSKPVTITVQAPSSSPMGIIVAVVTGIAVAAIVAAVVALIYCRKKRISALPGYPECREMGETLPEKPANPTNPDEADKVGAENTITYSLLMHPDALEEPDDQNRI
Description: as §1

[7] = biological target: T3, CD32a-H131 (FcgRIIa-H131) (Homo sapiens, UniProt P12318); experiment: SPR binding to FcgR-his: CD32a-H131; conditions: 1 μM antibody, anti-his Fab captured FcgR-his
T3 sequence (P12318 34-217 limits assumed): T1 sequence (P12318 34-217 H167R limits assumed) with R134H
Description: as §1

B1: IgG2.3plusTHT: modified IgG2.3 constant region construct (protein)
chain: ASTKGPSVFPLAPCSRSTSESTAALGCLVKDYFPEPVTVSWNSGALTSGVHTFPAVLQSSGLYSLSSVVTVPSSNFGTQTYTCNVDHKPSNTKVDKTVERKSCVETHTCPPCPAPPVAGPSVFLFPPKPKDTLMISRTPEVTCVVVDVSHEDPEVQFNWYVDGVEVHNAKTKPREEQFNSTFRVVSVLTVVHQDWLNGKEYKCKVSNKGLPAPIEKTISKTKGQPREPQVYTLPPSREEMTKNQVSLTCLVKGFYPSDIAVEWESNGQPENNYKTTPPMLDSDGSFFLYSKLTVDKSRWQQGNVFSCSVMHEALHNHYTQKSLSLSPGK
modifications: Synthetic: IgG2.3-plusTHT
notes: modified IgG2.3 constant region construct
FcgR binding properties by SPR (in words) [1]: unable to retain IgG1f-like FcgR binding properties

B2: IgG2.5plusTHT: modified IgG2.5 constant region construct (protein)
chain: B1 chain with C14S, S102C
modifications: Synthetic: IgG2.5-plusTHT
notes: modified IgG2.5 constant region construct
FcgR binding properties by SPR (in words) [1]: unable to retain IgG1f-like FcgR binding properties

B3: IgG2.3plusGGG: modified IgG2.3 constant region construct (protein)
chain: B1 chain with T106G, H107G, T108G
modifications: Synthetic: IgG2.3-plusGGG
notes: as for B1
FcgR binding properties by SPR (in words) [1]: unable to retain IgG1f-like FcgR binding properties

B4: IgG2.3G1-AY-V27: IgG2.3G1-AY constant region with S267E (protein)
chain: ASTKGPSVFPLAPCSRSTSESTAALGCLVKDYFPEPVTVSWNSGALTSGVHTFPAVLQSSGLYSLSSVVTVPSSNFGTQTYTCNVDHKPSNTKVDKTVERKSCVECPPCPAPELLGGPSVFLFPPKPKDTLMISRTPEVTCVVVDVEHEDPEVKFNWYVDGVEVHNAKTKPREEQYNSTYRVVSVLTVLHQDWLNGKEYKCKVSNKALPAPIEKTISKAKGQPREPQVYTLPPSREEMTKNQVSLTCLVKGFYPSDIAVEWESNGQPENNYKTTPPVLDSDGSFFLYSKLTVDKSRWQQGNVFSCSVMHEALHNHYTQKSLSLSPGK
modifications: Synthetic: IgG2.3G1-AY-V27
notes: IgG2.3G1-AY constant region with S267E
FcgR binding properties by SPR (in words) [1]: comparable FcgR binding properties to IgG1f and IgG1f-S267E, respectively

% Rmax, binding to hCD32a-R131 [2]: 79% | % Rmax, binding to hCD16a-V158 [3]: 33% | % Rmax, binding to hCD64 [4]: 77% | % Rmax, binding to hCD16B-NA2 [5]: 10% | % Rmax, binding to hCD32b [6]: 77% | % Rmax, binding to hCD32a-H131 [7]: 76%
B5: mAb8-IgG2.5G1-AY-V27 (protein)
constant: B4 chain with C14S, S102C
modifications: left off: another chain or arm of the molecule

% Rmax, binding to hCD32a-R131 [2]: 92% | % Rmax, binding to hCD16a-V158 [3]: 26% | % Rmax, binding to hCD64 [4]: 84% | % Rmax, binding to hCD16B-NA2 [5]: 7% | % Rmax, binding to hCD32b [6]: 76% | % Rmax, binding to hCD32a-H131 [7]: 68%
B6: mAb7-IgG2.3G1-AY-V27 (protein)
constant: B4 chain
modifications: left off: another chain or arm of the molecule

% Rmax, binding to hCD32a-R131 [2]: 89% | % Rmax, binding to hCD16a-V158 [3]: 32% | % Rmax, binding to hCD64 [4]: 81% | % Rmax, binding to hCD16B-NA2 [5]: 9% | % Rmax, binding to hCD32b [6]: 84% | % Rmax, binding to hCD32a-H131 [7]: 74%
B7: mAb7-IgG2.5G1-AY-V27 (protein)
constant: B4 chain with C14S, S102C
modifications: left off: another chain or arm of the molecule

% Rmax, binding to hCD32a-R131 [2]: 17% | % Rmax, binding to hCD16a-V158 [3]: 2% | % Rmax, binding to hCD64 [4]: 3% | % Rmax, binding to hCD16B-NA2 [5]: 0% | % Rmax, binding to hCD32b [6]: 4% | % Rmax, binding to hCD32a-H131 [7]: 75%
B8: mAb6-IgG2.5 (protein)
constant: ASTKGPSVFPLAPSSRSTSESTAALGCLVKDYFPEPVTVSWNSGALTSGVHTFPAVLQSSGLYSLSSVVTVPSSNFGTQTYTCNVDHKPSNTKVDKTVERKCCVECPPCPAPPVAGPSVFLFPPKPKDTLMISRTPEVTCVVVDVSHEDPEVQFNWYVDGVEVHNAKTKPREEQFNSTFRVVSVLTVVHQDWLNGKEYKCKVSNKGLPAPIEKTISKTKGQPREPQVYTLPPSREEMTKNQVSLTCLVKGFYPSDIAVEWESNGQPENNYKTTPPMLDSDGSFFLYSKLTVDKSRWQQGNVFSCSVMHEALHNHYTQKSLSLSPGK
modifications: left off: another chain or arm of the molecule

% Rmax, binding to hCD32a-R131 [2]: 4% | % Rmax, binding to hCD16a-V158 [3]: 0% | % Rmax, binding to hCD64 [4]: −2% | % Rmax, binding to hCD16B-NA2 [5]: −2% | % Rmax, binding to hCD32b [6]: −2% | % Rmax, binding to hCD32a-H131 [7]: 39%
B9: mAb13-IgG2.5 (protein)
constant: B8 constant
modifications: left off: another chain or arm of the molecule

% Rmax, binding to hCD32a-R131 [2]: 8% | % Rmax, binding to hCD16a-V158 [3]: 1% | % Rmax, binding to hCD64 [4]: 2% | % Rmax, binding to hCD16B-NA2 [5]: 0% | % Rmax, binding to hCD32b [6]: 1% | % Rmax, binding to hCD32a-H131 [7]: 46%
B10: mAb4-IgG2.5 (protein)
constant: B8 constant
modifications: left off: another chain or arm of the molecule

% Rmax, binding to hCD32a-R131 [2]: 26% | % Rmax, binding to hCD16a-V158 [3]: 4% | % Rmax, binding to hCD64 [4]: 6% | % Rmax, binding to hCD16B-NA2 [5]: 1% | % Rmax, binding to hCD32b [6]: 5% | % Rmax, binding to hCD32a-H131 [7]: 89%
B11: mAb5-IgG2.5 (protein)
constant: B8 constant
modifications: left off: another chain or arm of the molecule
